# Source: paper PMC12221982, “The structure of the complete extracellular bacterial flagellum reveals the mechanism of flagellin incorporation” (Nature Microbiology, 2025)
# B1: FliD filament cap protein (S. enterica) (natural protein)
# chain: MASISSLGVGSNLPLDQLLTDLTKNEKGRLTPITKQQSANSAKLTAYGTLKSALEKFQTANTALNKADLFKSTVASSTTEDLKVSTTAGAAAGTYKINVTQLAAAQSLATKTTFATTKEQLGDTSVTSRTIKIEQPGRKEPLEIKLDKGDTSMEAIRDAINDADSGIAASIVKVKENEFQLVLTANSGTDNTMKITVEGDTKLNDLLAYDSTTNTGNMQELVKAENAKLNVNGIDIERQSNTVTDAPQGITLTLTKKVTDATVTVTKDDTKAKEAIKSWVDAYNSLVDTFSSLTKYTAVEPGEEASDKNGALLGDSVVRTIQTGIRAQFANSGSNSAFKTMAEIGITQDGTSGKLKIDDDKLTKVLKDNTAAARELLVGDGKETGITTKIATEVKSYLADDGIIDNAQDNVNATLKSLTKQYLSVSNSIDETVARYKAQFTQLDTMMSKLNNTSSYLTQQFTAMNKS
# notes: FliD, flagellar filament cap protein of Salmonella enterica subsp. enterica serovar Typhimurium LT2; domains D0 to D3; […]; Five subunits form the pentameric cap at the distal end of the filament; also called FliD cap; filament cap complex; source: endogenous, S. enterica strain EM16009; part of purified short flagella (DDM lysis, ultracentrifugation)
# B2: FliD filament cap protein (C. jejuni) (natural protein)
# chain: MAFGSLSSLGFGSGVLTQDTIDKLKEAEQKARIDPYTKKIEENTTKQKDLTEIKTKLLSFQTAVSSLADATVFAKRKVVGSISDNPPASLTVNSGVALQSMNINVTQLAQKDVYQSKGLANDGGFVNAQLNGTADLTFFSNGKEYTVTVDKNTTYRDLADKINEASGGEIVAKIVNTGEKGTPYRLTLTSKETGEDSAISFYAGKKDSNGKYQKDINAEKIFDDLGWGLDVSASIDPDKDKKGYGIKDASLHIQTAQNAEFTLDGIKMFRSSNTVTDLGVGMTLTLNKTGEINFDVQQDFEGVTKAMQDLVDAYNDLVTNLNAATDYNSETGTKGTLQGISEVNSIRSSILADLFDSQVVDGTTEDANGNKVNTKVMLSMQDFGLSLNDAGTLSFDSSKFEQKVKEDPDSTESFFSNITKYEDINHTGEVIKTGSLSKYLNSNGGNTNGLEFKPGDFTIVFNNQTYDLSKNSDGTNFKLTGKTEEELLQNLANHINSKGIEGLKVKVESYNQNNVTGFRLNFSGDGSSDFSIKGDANILKELGLSDVNITSKPIEGKGIFSKLKATLQEMTGKDGSITKYDESLTNDIKSLNTSKDSTQAMIDTRYDTMANQWLQYESILNKLNQQLNTVTNMINAANNSNN
# notes: has an additional domain D4; model built from an AlphaFold model; Five subunits form the pentameric cap on the HFJ; also called C. jejuni FliD; FliD cap of C. jejuni; source: endogenous, C. jejuni ΔflhG ΔflaAB minicells, imaged in situ
# B3: FlgK hook-filament junction protein (C. jejuni) (natural protein)
# chain: MGIFGTLYTGVTGLKASEVQIATTGNNISNANATFYTRQRVVQTTNGYITTGGVQVGTGTAVESIVRLHDEYSYYKLKGASTQLEYTKYMASTLQEIAQRFPDLQNTGILQDLENYNKAWNDFASNPNENATKIALVKASQTLTESVNNTFATLDKIQKKVNDDIKNTVDEINRIGEEIATINKQIYGQEALPTEHANELRDRRDELELTLSKLVSAVASKNEINQDNRLDTTITDPGHQYNLSIEGFSIVDGINFHPLKLDYDDKNKSYSIYYETPDEKVRDLTAKISGGQLGAQLDLRGRNYSKSEGKYEDGIIQGYMDSLDTFAKTMINETNNLYASSAKSSVTSDYLSGLKGDIPLVNYDRTIQPGSFDIVIYDDKGDKKLTKTITIDVNTTMNDIMRQINANTDDNDNKNSNDDVDDHINASFSYDAKTGDGLFQINAKSGFKVAIEDKGTNFAGAFSIGGFFSGTDASDMKVKDSILNDPSTVRASSNGVDSGNDMANKIIQLQYKKVNFYNEDGTIDNLTMEEYYRKLTGKIASDGENNNVVNSSNETLYNSVYSEYQSKSGVNTNEELAALIQYQSSYGAAAKIVSTVDQMLDTLLGLKS
# notes: model built from an AlphaFold model; Eleven subunits form the proximal layer of the HFJ; also called C. jejuni FlgK; source: endogenous, C. jejuni ΔflhG ΔflaAB minicells, imaged in situ
# B4: FlgL hook-filament junction protein (C. jejuni) (natural protein)
# chain: MRITNKLNFTNSVNNSMGGQSALYQISQQLASGLKIQNSYEDASTYIDNTRLEYEIKTLEQVKESTSRAQEMTQNSMKALQDMVKLLEDFKVKVTQAASDSNSQTSREAIAKELERIKESIVQLANTSVNGQYLFAGSQVANKPFDSNGNYYGDKNNINVVTGAGTESPYNIPGWDLFFKADGDYKKQISTNVSFTDNRWDLNKDPDKTKYLTGDSKWQQLIGQGYVKDNSLDADKDFEYDDSKLDFPPTTLYVQGTKPDGTSFKSAVLVKPEDTLEDVMENIGALYGNTPNNKVVEVSMNDSGQIQITDLKQGNNKLDFHAVAFTPQADTKDELKNIIEAANQEGISMNEVTNRVMQAATAAPSNGDITKLNNPVTVTINNQQFTIDLKQTDFIKSKMTDTDGNAANGADYDNVYFEKNGNTVYGNVSQVIKGSNAYATDSTKLSEVMAGDSLNGTTLNLKVNSKGGNSYDVTINLQTSTVSYPDPNNPGQTISFPIMHTNPATGNSGVVTGSNDITYGQINDIIGMFAADKIPTTTIQANNGQINNADYTQIQQLMKDSQATVDVSMDYKGRISVTDKLSSGTNIEISLSDSQSGQFPAPPFTTTSTVQNGPNFSFSANNSLTIDEPNVDIIKDLDSMIDAVLKGNMRADSESENPRNTGMQGALERLDHLADHVSKLNTTMGAYHNTIEGVNTRTSFLSVNVQSIKSNVIDVDYGEAMMNLMQVQLAYQASLKASTTISQLSLLNYM
# notes: has a bulky D2 domain; model built from an AlphaFold model; Eleven subunits form the distal layer of the HFJ; also called C. jejuni FlgL; source: endogenous, C. jejuni ΔflhG ΔflaAB minicells, imaged in situ
# B5: FlgK hook-filament junction protein (S. enterica) (natural protein)
# chain: MSSLINHAMSGLNAAQAALNTVSNNINNYNVAGYTRQTTILAQANSTLGAGGWIGNGVYVSGVQREYDAFITNQLRGAQNQSSGLTTRYEQMSKIDNLLADKSSSLSGSLQSFFTSLQTLVSNAEDPAARQALIGKAEGLVNQFKTTDQYLRDQDKQVNIAIGSSVAQINNYAKQIANLNDQISRMTGVGAGASPNDLLDQRDQLVSELNKIVGVEVSVQDGGTYNLTMANGYTLVQGSTARQLAAVPSSADPTRTTVAYVDEAAGNIEIPEKLLNTGSLGGLLTFRSQDLDQTRNTLGQLALAFADAFNAQHTKGYDADGNKGKDFFSIGSPVVYSNSNNADKTVSLTAKVVDSTKVQATDYKIVFDGTDWQVTRTADNTTFTATKDADGKLEIDGLKVTVGTGAQKNDSFLLKPVSNAIVDMNVKVTNEAEIAMASESKLDPDVDTGDSDNRNGQALLDLQNSNVVGGNKTFNDAYATLVSDVGNKTSTLKTSSTTQANVVKQLYKQQQSVSGVNLDEEYGNLQRYQQYYLANAQVLQTANALFDALLNIR
# notes: FlgK, hook-filament junction protein (proximal layer) of Salmonella enterica subsp. enterica serovar Typhimurium LT2; […]; Eleven subunits form the proximal layer of the hook-filament junction; also called HFJ; FlgKL; source: endogenous, S. enterica strain EM16009; part of purified short flagella
# B6: FlgL hook-filament junction protein (S. enterica) (natural protein)
# chain: MRISTQMMYEQNMSGITNSQAEWMKLGEQMSTGKRVTNPSDDPIAASQAVVLSQAQAQNSQYALARTFATQKVSLEESVLSQVTTAIQTAQEKIVYAGNGTLSDDDRASLATDLQGIRDQLMNLANSTDGNGRYIFAGYKTEAAPFDQATGGYHGGEKSVTQQVDSARTMVIGHTGAQIFNSITSNAVPEPDGSDSEKNLFVMLDTAIAALKTPVEGNNVEKEKAAAAIDKTNRGLKNSLNNVLTVRAELGTQLSELSTLDSLGSDRALGQKLQMSNLVDVDWNSVISSYVMQQAALQASYKTFTDMQGMSLFQLNR
# notes: FlgL, hook-filament junction protein (distal layer) of Salmonella enterica subsp. enterica serovar Typhimurium LT2; […]; Eleven subunits form the distal layer of the hook-filament junction; also called HFJ; FlgKL; source: endogenous, S. enterica strain EM16009; part of purified short flagella
# B7: FlgE hook protein (S. enterica) (natural protein)
# chain: MSFSQAVSGLNAAATNLDVIGNNIANSATYGFKSGTASFADMFAGSKVGLGVKVAGITQDFTDGTTTNTGRGLDVAISQNGFFRLVDSNGSVFYSRNGQFKLDENRNLVNMQGMQLTGYPATGTPPTIQQGANPAPITIPNTLMAAKSTTTASMQINLNSTDPVPSKTPFSVSDADSYNKKGTVTVYDSQGNAHDMNVYFVKTKDNEWAVYTHDSSDPAATAPTTASTTLKFNENGILESGGTVNITTGTINGATAATFSLSFLNSMQQNTGANNIVATNQNGYKPGDLVSYQINNDGTVVGNYSNEQEQVLGQIVLANFANNEGLASQGDNVWAATQASGVALLGTAGSGNFGKLTNGALEASNVDLSKELVNMIVAQRNYQSNAQTIKTQDQILNTLVNLR
# notes: FlgE, flagellar hook protein of Salmonella enterica subsp. enterica serovar Typhimurium LT2; […]; There are 13 copies in the HFJ model; source: endogenous, S. enterica strain EM16009; part of purified short flagella
# What was measured:
# [1] = biological target: T1, FliC flagellin (S. enterica) (S. enterica subsp. enterica serovar …, UniProt P06179 1-495); assay: cryo-EM structure; single-particle cryo-EM of purified short flagella of S. enterica EM16009 (buffer B: 10 mM Tris pH 8, 5 mM EDTA, 0.01% DDM); cap-filament map at 3.7 Å; model of 5 FliD and 17 FliC; conditions: both partners purified
# T1 construct: FliC, phase 1 flagellin of Salmonella enterica subsp. enterica serovar Typhimurium LT2; domains D0 to D3; […]; There are 17 copies in the cap model and 14 in the HFJ model; also called filament; source: S. enterica strain EM16009, chromosomal fliC under the inducible PtetA promoter (30 min AnTc); part of purified short flagella
# T1 sequence (P06179 whole entry): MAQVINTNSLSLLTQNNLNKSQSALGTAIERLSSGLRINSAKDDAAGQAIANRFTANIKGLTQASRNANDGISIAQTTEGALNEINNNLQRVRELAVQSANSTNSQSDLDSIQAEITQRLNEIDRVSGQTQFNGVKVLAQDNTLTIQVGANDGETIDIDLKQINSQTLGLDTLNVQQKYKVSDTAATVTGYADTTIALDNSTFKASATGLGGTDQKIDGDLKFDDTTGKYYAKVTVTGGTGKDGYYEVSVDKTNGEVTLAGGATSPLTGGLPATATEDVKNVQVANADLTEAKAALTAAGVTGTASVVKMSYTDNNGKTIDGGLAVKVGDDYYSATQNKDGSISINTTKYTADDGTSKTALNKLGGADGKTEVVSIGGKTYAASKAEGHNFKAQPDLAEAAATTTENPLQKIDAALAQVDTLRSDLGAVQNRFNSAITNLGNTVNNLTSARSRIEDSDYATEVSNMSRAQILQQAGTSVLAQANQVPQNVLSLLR
# [2] = biological target: the molecule itself; assay: as above
# [3] = biological target: the molecule itself; assay: cryo-EM structure; single-particle cryo-EM of flagellar hook tips on C. jejuni ΔflhG ΔflaAB minicells (no filament); cap-HFJ map at 6.5 Å; model of 11 FlgK, 11 FlgL and 5 FliD fitted as rigid bodies and refined
# [4] = biological target: the molecule itself; assay: cryo-EM structure; single-particle cryo-EM of the same purified short flagella of S. enterica EM16009; hook-filament junction map at 2.9 Å; model of 13 FlgE, 11 FlgK, 11 FlgL and 14 FliC
# [5] = biological target: T1, FliC flagellin (S. enterica); assay: as above; conditions: both partners purified
binder,measurement,setting,value
B1,binding result,[1],binds
same,stoichiometry N,[2],5 subunits
B2,stoichiometry N,[3],5 subunits
B3,stoichiometry N,[3],11 subunits
B4,stoichiometry N,[3],11 subunits
B5,stoichiometry N,[4],11 subunits
B6,binding result,[5],binds
same,stoichiometry N,[4],11 subunits
B7,binding result,[4],binds
